The results in this text go back to patent US20080241867A1.

The target of the assay is hybrid GFP construct containing the protease cleavage sequence SVPSGCG (SEQ ID NO:21) followed by histidine residues (Aequorea victoria (Water jellyfish) (Mesonema victoria)) [GFP: P42212]. The assay can be described thus: cell-based or functional assay.

Consider Pancreatin, for which the Micrograms of GFP Released by Protease (overnight, IMAC beads) came out at 137 µg.
